Values joined by “and” are separate entries in the source; they are usually repeats but may differ in a detail not shown here. Identical values can stand only once.
T1: ECF01_3473
T1 chain: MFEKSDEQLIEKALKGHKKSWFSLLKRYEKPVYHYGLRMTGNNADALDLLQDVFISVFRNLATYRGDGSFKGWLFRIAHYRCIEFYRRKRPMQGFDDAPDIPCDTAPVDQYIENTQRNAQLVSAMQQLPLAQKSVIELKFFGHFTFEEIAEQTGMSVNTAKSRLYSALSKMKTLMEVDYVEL

T2: ECF02_915
T2 chain: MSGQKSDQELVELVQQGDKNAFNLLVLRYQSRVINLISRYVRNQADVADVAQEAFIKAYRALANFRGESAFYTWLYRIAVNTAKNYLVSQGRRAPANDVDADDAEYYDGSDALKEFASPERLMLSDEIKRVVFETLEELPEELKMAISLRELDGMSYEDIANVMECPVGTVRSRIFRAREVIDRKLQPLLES

T3: ECF03_1244
T3 chain: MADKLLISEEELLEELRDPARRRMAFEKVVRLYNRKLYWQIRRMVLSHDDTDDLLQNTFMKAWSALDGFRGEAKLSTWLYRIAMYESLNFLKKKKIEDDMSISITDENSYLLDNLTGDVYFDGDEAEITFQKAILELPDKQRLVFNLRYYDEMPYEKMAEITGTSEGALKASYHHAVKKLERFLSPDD

T4: ECF11_987
T4 chain: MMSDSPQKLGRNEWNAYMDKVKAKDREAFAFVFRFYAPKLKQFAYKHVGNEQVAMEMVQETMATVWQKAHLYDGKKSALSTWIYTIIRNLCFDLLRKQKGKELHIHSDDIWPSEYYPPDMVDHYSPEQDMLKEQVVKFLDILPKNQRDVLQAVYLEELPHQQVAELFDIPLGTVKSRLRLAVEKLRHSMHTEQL

T5: ECF15_436
T5 chain: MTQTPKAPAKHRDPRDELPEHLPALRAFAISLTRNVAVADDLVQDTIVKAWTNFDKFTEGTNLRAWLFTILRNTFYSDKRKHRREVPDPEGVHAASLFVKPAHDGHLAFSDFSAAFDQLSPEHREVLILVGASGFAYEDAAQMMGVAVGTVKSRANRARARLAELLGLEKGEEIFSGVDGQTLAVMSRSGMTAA

T6: ECF16_3622
T6 chain: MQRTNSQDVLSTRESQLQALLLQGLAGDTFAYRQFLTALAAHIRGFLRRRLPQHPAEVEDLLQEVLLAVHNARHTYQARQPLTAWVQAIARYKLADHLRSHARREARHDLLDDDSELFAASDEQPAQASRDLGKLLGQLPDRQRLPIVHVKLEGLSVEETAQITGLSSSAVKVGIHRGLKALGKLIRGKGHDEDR

T7: ECF17_1691
T7 chain: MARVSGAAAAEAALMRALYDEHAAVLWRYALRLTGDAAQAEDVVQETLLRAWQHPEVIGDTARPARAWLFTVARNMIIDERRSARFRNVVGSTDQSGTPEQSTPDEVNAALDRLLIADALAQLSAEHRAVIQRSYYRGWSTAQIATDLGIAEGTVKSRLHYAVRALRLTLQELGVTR

T8: ECF25_1643
T8 chain: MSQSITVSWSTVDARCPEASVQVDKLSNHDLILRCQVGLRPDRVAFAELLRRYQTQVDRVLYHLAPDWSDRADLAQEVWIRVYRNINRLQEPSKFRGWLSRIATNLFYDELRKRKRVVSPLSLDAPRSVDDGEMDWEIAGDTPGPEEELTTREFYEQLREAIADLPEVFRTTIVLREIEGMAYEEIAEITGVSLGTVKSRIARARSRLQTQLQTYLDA

T9: ECF25_1645
T9 chain: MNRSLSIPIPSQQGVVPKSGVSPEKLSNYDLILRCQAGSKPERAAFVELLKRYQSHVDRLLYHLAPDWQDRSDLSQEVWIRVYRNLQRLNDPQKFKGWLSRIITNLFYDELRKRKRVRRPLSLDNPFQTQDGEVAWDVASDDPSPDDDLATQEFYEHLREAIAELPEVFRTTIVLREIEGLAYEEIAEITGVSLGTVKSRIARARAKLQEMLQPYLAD

T10: ECF28_1040
T10 chain: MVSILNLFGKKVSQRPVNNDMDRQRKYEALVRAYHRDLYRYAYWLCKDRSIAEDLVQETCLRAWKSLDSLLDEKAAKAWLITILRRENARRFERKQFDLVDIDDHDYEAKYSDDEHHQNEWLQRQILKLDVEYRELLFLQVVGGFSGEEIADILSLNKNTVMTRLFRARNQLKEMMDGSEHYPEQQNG

T11: ECF30_35
T11 chain: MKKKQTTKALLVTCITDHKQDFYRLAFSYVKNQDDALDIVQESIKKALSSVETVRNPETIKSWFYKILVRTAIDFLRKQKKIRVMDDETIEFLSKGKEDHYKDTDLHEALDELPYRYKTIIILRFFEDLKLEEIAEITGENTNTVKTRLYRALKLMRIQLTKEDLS

T12: ECF34_1384
T12 chain: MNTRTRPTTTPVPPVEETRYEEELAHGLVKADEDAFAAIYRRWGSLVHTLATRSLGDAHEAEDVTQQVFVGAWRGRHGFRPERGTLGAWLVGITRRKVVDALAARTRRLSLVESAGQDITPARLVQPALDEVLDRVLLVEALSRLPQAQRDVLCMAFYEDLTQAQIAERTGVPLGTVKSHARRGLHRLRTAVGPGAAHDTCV

T13: ECF35_3582
T13 chain: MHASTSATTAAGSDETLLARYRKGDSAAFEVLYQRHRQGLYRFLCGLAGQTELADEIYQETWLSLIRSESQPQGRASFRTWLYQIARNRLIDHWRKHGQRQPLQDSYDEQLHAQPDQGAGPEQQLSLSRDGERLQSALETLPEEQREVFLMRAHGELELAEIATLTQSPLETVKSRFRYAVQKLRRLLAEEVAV

T14: ECF37_2513
T14 chain: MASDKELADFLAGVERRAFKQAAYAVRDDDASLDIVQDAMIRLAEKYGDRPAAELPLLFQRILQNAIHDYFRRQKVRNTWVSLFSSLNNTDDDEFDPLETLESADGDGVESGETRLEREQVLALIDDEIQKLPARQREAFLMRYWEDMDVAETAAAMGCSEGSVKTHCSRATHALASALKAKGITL

B1: AS22_1147 (protein)
chain: MELDDIAVAWRSLEQRLDQHAALAGQVLGDLRSHAARAHLRPLWLSQSAQLLCAIALSGLVAHSWLAFPEQAAAIVGGVLLQIWCVALAASAARQLWLLSQLDFARPLLQTQRALAQLRRWRTRVAPWLGVAFWVLWVAVADAAWRALTGRSLPYAWLLCNLLVGVLGGIGTWLGYRRLQRSGHPWLERLDTVHAGRSVARTETLLEQIARFQRE
B2: AS22_4450 (protein)
chain: MELDDMKHAWQTLEQRLDQQAAQTGQLLGVVHEETVRSSLRPLWVAQTAQLLCALALAIVSARSWIPHTDQPVAVIGGVLLQAWCMALAISAMVQLQLLTQFNVAGPLLRTQHALARLRRWRTRVAPWLGVAFWVLWIAVADALWRALTGQTLPTDWLVLNLLVGVAGGIGTWLGFRRLQRAQHPWLERIDRAHAGTGVIRAERMLEEIARFQRD
B3: AS25_1643_cl43 (protein)
chain: MTTDSNFNDPCRRQFSRDLPQKMARHTNEATGAMDMVKRDRFELLSAYLGGEVTAAERRQVEDWPANDVAVQRLYSRLLKLRQGIRTMPIPTAQQSPETTAEQVFAKVNRRSRLAWKLGGAAVAACVIGAVTNWLPGRQTGIPQLAQQPQEQPTQAVTTPDALPMIALNNPVIEIPKAAVASPTKFIQPQPQLGEIPPDIN
B4: AS25_1645 (protein)
chain: MNESFSQRQTDGDRRRGGDLEMKKNHTSHQHHTDSETPMGHNFEQFQRLSAYFDGEATPAERKEIQHLLDTDPQVKQQYQQLRQLKQALQLLPIPTSISAQYLGQRVLARLRRSQLRTLSLWGSGAIAALFVAGVMGQMPRLNFDRFAKNDPDQQPTAALVETSPQGEEALVVALNRPVLQIPKLATTESP
B5: AS27_1331 (protein)
chain: MSAADKDPDKHSADADPPLTVELLADLQAGLLDDATAARIRSRVRSDPQAQQILRALNRVRRDVAAMGADPAWGPAARPAVVDSISAALRSARPNSSPGAAHAARPHVHPVRMIAGAAGLCAVATAIGVGAVVDAPPPAPSAPTTAQHITVSKPAPVIPLSRPQVLDLLHHTPDYGPPGGPLGDPSRRTSCLSGLGYPASTPVLGAQPIDIDARPAVLLVIPADTPDKLAVFAVAPHCSAADTGLLASTVVPRA
B6: AS27_4265 (protein)
chain: MTGHPDVAEIADLAEGLLPTTRTTEVRQHLESCELCADVYASLTEIQGLLGTLPAPAPMPDDVAARIDAALAAEPPLGIADGTRVSRETSTPADRPAGHARPSSTGPGRKDRRRGGRRRIAVLGAVAAAAAIGIGSVVVSSLTEDSSSGNTAREQQTAIADTFSEGRLKDRVTNLVADGSAENGSRTPRSFGMESENGGETAENHVFKQPTVPECIRKGIGRDDAVIATEPGVYKGREALLVVLPDATNDTQVTAYIVETACVDQPAVGKAKILLEHSYARS

Target: T1, ECF01_3473

Compared with B1, B2 is lower in fold repression: 3.03 for the first, 1.32 for the second.

First: B3
Second: B4
The fold repression of the first is lower: 2.75 for the first, 7.11 for the second.

Going from B5 to B6, the fold repression rises from 2.69 to 3.99.

Target: T2, ECF02_915

Compared with B1, B2 is lower in fold repression: 3.59 for the first, 2.12 for the second.

Compared with B3, B4 is higher in fold repression: 6.67 for the first, 6.91 for the second.

Going from B5 to B6, the fold repression falls from 2.72 to 2.41.

Target: T3, ECF03_1244

First: B1
Second: B2
The fold repression of the first is higher: 3.22 for the first, 1.75 for the second.

Going from B3 to B4, the fold repression rises from 1.06 to 4.7.

First: B5
Second: B6
The fold repression of the first is higher: 4.29 for the first, 1.38 for the second.

Target: T4, ECF11_987

Going from B1 to B2, the fold repression falls from 3.16 to 1.89.

Going from B3 to B4, the fold repression rises from 2.43 to 8.87.

First: B5
Second: B6
The fold repression of the first is lower: 5.69 for the first, 5.93 for the second.

Target: T5, ECF15_436

Going from B1 to B2, the fold repression falls from 3.01 to 1.41.

Compared with B3, B4 is higher in fold repression: 1.2 for the first, 8.62 for the second.

First: B5
Second: B6
The fold repression of the first is higher: 4.26 for the first, 3.65 for the second.

Target: T6, ECF16_3622

Compared with B1, B2 is lower in fold repression: 2.91 for the first, 1.79 for the second.

First: B3
Second: B4
The fold repression of the first is lower: 2.26 for the first, 6.9 for the second.

Compared with B5, B6 is lower in fold repression: 6.93 for the first, 5.58 for the second.

Target: T7, ECF17_1691

Going from B1 to B2, the fold repression falls from 1.74 to 1.52.

First: B3
Second: B4
The fold repression of the first is lower: 1.92 for the first, 4.24 for the second.

Compared with B5, B6 is higher in fold repression: 2.09 for the first, 2.82 for the second.

Target: T8, ECF25_1643

B1 was tested, and the fold repression was 2.46 and 1.99.
B2 was tested, and the fold repression was 1.63 and 1.34.
B3 was tested, and the fold repression was 4.28 and 3.89.
For B4, the fold repression was 19.5 and 19.2.
In the case of B5, the fold repression is reported as 2.81 and 2.4.
For B6, the fold repression was 1.63 and 1.17.

Target: T9, ECF25_1645

Compared with B1, B2 is lower in fold repression: 2.27 for the first, 1.42 for the second.

Going from B3 to B4, the fold repression rises from 7.28 to 33.7.

Compared with B5, B6 is lower in fold repression: 3.12 for the first, 1.02 for the second.

These binders were tested against ECF27_1331.

Compared with B1, B2 is lower in fold repression: 3.07 for the first, 1.37 for the second.

Going from B3 to B4, the fold repression rises from 1.96 to 11.2.

Compared with B5, B6 is higher in fold repression: 3.32 for the first, 3.78 for the second.

Target: T10, ECF28_1040

Compared with B1, B2 is lower in fold repression: 1.78 for the first, 1.4 for the second.

Going from B3 to B4, the fold repression rises from 1.09 to 2.95.

Compared with B5, B6 is higher in fold repression: 1.5 for the first, 2.19 for the second.

Target: T11, ECF30_35

First: B1
Second: B2
The fold repression of the first is higher: 2.04 for the first, 1.54 for the second.

Going from B3 to B4, the fold repression rises from 0.929 to 3.43.

First: B5
Second: B6
The fold repression of the first is lower: 3.98 for the first, 5.45 for the second.

Target: T12, ECF34_1384

First: B1
Second: B2
The fold repression of the first is higher: 2.09 for the first, 1.66 for the second.

First: B3
Second: B4
The fold repression of the first is lower: 2.43 for the first, 7.62 for the second.

First: B5
Second: B6
The fold repression of the first is lower: 2.35 for the first, 5.28 for the second.

Target: T13, ECF35_3582

Compared with B1, B2 is lower in fold repression: 1.94 for the first, 1.35 for the second.

First: B3
Second: B4
The fold repression of the first is lower: 1.57 for the first, 2.98 for the second.

First: B5
Second: B6
The fold repression of the first is higher: 5.79 for the first, 1.97 for the second.

Target: T14, ECF37_2513

Compared with B1, B2 is lower in fold repression: 3.66 for the first, 1.51 for the second.

Compared with B3, B4 is higher in fold repression: 1.9 for the first, 7.52 for the second.

First: B5
Second: B6
The fold repression of the first is higher: 2.75 for the first, 2.03 for the second.
